Measured values reported in the supplement of paper PMC5998384.

Key:
HeLa Kyoto [1] = test: solubility change mitosis vs G1/S (difference of NP-40 vs SDS log2 ratios) (log2 ratio difference); higher = more soluble in mitosis
HeLa Kyoto [2] = test: thermal stability score vs G1/S (z-score of summed log2 fold changes over temperatures); higher = more thermally stable than in G1/S
HeLa Kyoto [3] = test: solubility in G1/S (NP-40 vs SDS abundance) (log2 ratio); higher = more soluble; conditions: cell cycle stage: G1/S
[4] = cell cycle stage: early G1 (4.5 h after nocodazole release)
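Throughout, for solubility change mitosis vs G1/S (difference of NP-40 vs SDS log2 ratios): synchronized HeLa Kyoto cells (double thymidine block for G1/S, nocodazole release for mitosis), protein amounts in NP-40 versus SDS lysates quantified by mass spectrometry, three biological replicates.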
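Throughout, for solubility in G1/S (NP-40 vs SDS abundance): HeLa Kyoto cells arrested at G1/S by double thymidine block, proteins quantified by TMT10plex mass spectrometry in mild NP-40 versus SDS extracts, three biological replicates.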
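Throughout, for thermal stability score vs G1/S (z-score of summed log2 fold changes over temperatures): synchronized HeLa Kyoto cells, proteins quantified by TMT10plex mass spectrometry, three biological replicates, mitosis taken 0.5 h after nocodazole release, G1/S directly after double thymidine block.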

Row | Substance | solubility change mitosis (log2) (HeLa Kyoto [1]) | thermal stability score (HeLa Kyoto [2]; [4]) | thermal stability score (HeLa Kyoto [2]; cell cycle stage: mitosis) | solubility in G1/S (log2) (HeLa Kyoto [3])
1 | MLVGQGAGLLGPAVVTAAVVLLLSGVGPAHGSEDIVVGCGGFVKSDVEINYSLIEIKLYTKHGTLKYQTDCAPNNGYFMIPLYDKGDFILKIEPPLGWSFEPTTVELHVDGVSDICTKGGDINFVFTGFSVNGKVLSKGQPLGPAGVQVSLRNTGTEAKIQSTVTQPGGKFAFFKVLPGDYEILATHPTWALKEASTTVRVTNSNANAASPLIVAGYNVSGSVRSDGEPMKGVKFLLFSSLVTKEDVLGCNVSPVPGFQPQDESLVYLCYTVSREDGSFSFYSLPSGGYTVIPFYRGERITFDVAPSRLDFTVEHDSLKIEPVFHVMGFSVTGRVLNGPEGDGVPEAVVTLNNQIKVKTKADGSFRLENITTGTYTIHAQKEHLYFETVTIKIAPNTPQLADIVATGFSVCGRISIIRFPDTVKQMNKYKVVLSSQDKDKSLVTVETDAHGSFCFKAKPGTYKVQVMVPEAETRAGLTLKPQTFPLTVTDRPVMDVAFVQFLASVSGKVSCLDTCGDLLVTLQSLSRQGEKRSLQLSGKVNAMTFTFDNVLPGKYKISIMHEDWCWKNKSLEVEVLEDDVSAVEFRQTGYMLRCSLSHAITLEFYQDGNGRENVGIYNLSKGVNRFCLSKPGVYKVTPRSCHRFEQAFYTYDTSSPSILTLTAIRHHVLGTITTDKMMDVTVTIKSSIDSEPALVLGPLKSVQELRREQQLAEIEARRQEREKNGNEEGEERMTKPPVQEMVDELQGPFSYDFSYWARSGEKITVTPSSKELLFYPPSMEAVVSGESCPGKLIEIHGKAGLFLEGQIHPELEGVEIVISEKGASSPLITVFTDDKGAYSVGPLHSDLEYTVTSQKEGYVLTAVEGTIGDFKAYALAGVSFEIKAEDDQPLPGVLLSLSGGLFRSNLLTQDNGILTFSNLSPGQYYFKPMMKEFRFEPSSQMIEVQEGQNLKITITGYRTAYSCYGTVSSLNGEPEQGVAMEAVGQNDCSIYGEDTVTDEEGKFRLRGLLPGCVYHVQLKAEGNDHIERALPHHRVIEVGNNDIDDVNIIVFRQINQFDLSGNVITSSEYLPTLWVKLYKSENLDNPIQTVSLGQSLFFHFPPLLRDGENYVVLLDSTLPRSQYDYILPQVSFTAVGYHKHITLIFNPTRKLPEQDIAQGSYIALPLTLLVLLAGYNHDKLIPLLLQLTSRLQGVGALGQAASDNSGPEDAKRQAKKQKTRRTLRLQEEFQLMWCLVPWRGTLGIHLFSSLPFASEILLETTATCIHY [NOMO2] | -0.136 | -0.17 | -0.401 | -0.0617
2 | MLPRRLLAAWLAGTRGGGLLALLANQCRFVTGLRVRRAQQIAQLYGRLYSESSRRVLLGRLWRRLHGRPGHASALMAALAGVFVWDEERIQEEELQRSINEMKRLEEMSNMFQSSGVQHHPPEPKAQTEGNEDSEGKEQRWEMVMDKKHFKLWRRPITGTHLYQYRVFGTYTDVTPRQFFNVQLDTEYRKKWDALVIKLEVIERDVVSGSEVLHWVTHFPYPMYSRDYVYVRRYSVDQENNMMVLVSRAVEHPSVPESPEFVRVRSYESQMVIRPHKSFDENGFDYLLTYSDNPQTVFPRYCVSWMVSSGMPDFLEKLHMATLKAKNMEIKVKDYISAKPLEMSSEAKATSQSSERKNEGSCGPARIEYA [STARD7] | -0.155 | -1.31 | -0.89 | 0.128
3 | MERGKMAEAESLETAAEHERILREIESTDTACIGPTLRSVYDGEEHGRFMEKLETRIRNHDREIEKMCNFHYQGFVDSITELLKVRGEAQKLKNQVTDTNRKLQHEGKELVIAMEELKQCRLQQRNISATVDKLMLCLPVLEMYSKLRDQMKTKRHYPALKTLEHLEHTYLPQVSHYRFCKVMVDNIPKLREEIKDVSMSDLKDFLESIRKHSDKIGETAMKQAQQQRNLDNIVLQQPRIGSKRKSKKDAYIIFDTEIESTSPKSEQDSGILDVEDEEDDEEVPGAQDLVDFSPVYRCLHIYSVLGARETFENYYRKQRRKQARLVLQPPSNMHETLDGYRKYFNQIVGFFVVEDHILHTTQGLVNRAYIDELWEMALSKTIAALRTHSSYCSDPNLVLDLKNLIVLFADTLQVYGFPVNQLFDMLLEIRDQYSETLLKKWAGIFRNILDSDNYSPIPVTSEEMYKKVVGQFPFQDIELEKQPFPKKFPFSEFVPKVYNQIKEFIYACLKFSEDLHLSSTEVDDMIRKSTNLLLTRTLSNSLQNVIKRKNIGLTELVQIIINTTHLEKSCKYLEEFITNITNVLPETVHTTKLYGTTTFKDARHAAEEEIYTNLNQKIDQFLQLADYDWMTGDLGNKASDYLVDLIAFLRSTFAVFTHLPGKVAQTACMSACKHLATSLMQLLLEAEVRQLTLGALQQFNLDVRECEQFARSGPVPGFQEDTLQLAFIDLRQLLDLFIQWDWSTYLADYGQPNCKYLRVNPVTALTLLEKMKDTSRKNNMFAQFRKNERDKQKLIDTVAKQLRGLISSHHS [EXOC6B] | -0.0208 | 0.0917 | 0.56 | -0.17
4 | MPPKTPRKTAATAAAAAAEPPAPPPPPPPEEDPEQDSGPEDLPLVRLEFEETEEPDFTALCQKLKIPDHVRERAWLTWEKVSSVDGVLGGYIQKKKELWGICIFIAAVDLDEMSFTFTELQKNIEISVHKFFNLLKEIDTSTKVDNAMSRLLKKYDVLFALFSKLERTCELIYLTQPSSSISTEINSALVLKVSWITFLLAKGEVLQMEDDLVISFQLMLCVLDYFIKLSPPMLLKEPYKTAVIPINGSPRTPRRGQNRSARIAKQLENDTRIIEVLCKEHECNIDEVKNVYFKNFIPFMNSLGLVTSNGLPEVENLSKRYEEIYLKNKDLDARLFLDHDKTLQTDSIDSFETQRTPRKSNLDEEVNVIPPHTPVRTVMNTIQQLMMILNSASDQPSENLISYFNNCTVNPKESILKRVKDIGYIFKEKFAKAVGQGCVEIGSQRYKLGVRLYYRVMESMLKSEEERLSIQNFSKLLNDNIFHMSLLACALEVVMATYSRSTSQNLDSGTDLSFPWILNVLNLKAFDFYKVIESFIKAEGNLTREMIKHLERCEHRIMESLAWLSDSPLFDLIKQSKDREGPTDHLESACPLNLPLQNNHTAADMYLSPVRSPKKKGSTTRVNSTANAETQATSAFQTQKPLKSTSLSLFYKKVYRLAYLRLNTLCERLLSEHPELEHIIWTLFQHTLQNEYELMRDRHLDQIMMCSMYGICKVKNIDLKFKIIVTAYKDLPHAVQETFKRVLIKEEEYDSIIVFYNSVFMQRLKTNILQYASTRPPTLSPIPHIPRSPYKFPSSPLRIPGGNIYISPLKSPYKISEGLPTPTKMTPRSRILVSIGESFGTSEKFQKINQMVCNSDRVLKRSAEGSNPPKPLKKLRFDIEGSDEADGSKHLPGESKFQQKLAEMTSTRTRMQKQKMNDSMDTSNKEEK [RB1] | -0.0546 | 0.441 | 2.18 | 0.147
5 | MERRSRRKSRRNGRSTAGKAAATQPAKSPGAQLWLFPSAAGLHRALLRRVEVTRQLCCSPGRLAVLERGGAGVQVHQLLAGSGGARTPKCIKLGKNMKIHSVDQGAEHMLILSSDGKPFEYDNYSMKHLRFESILQEKKIIQITCGDYHSLALSKGGELFAWGQNLHGQLGVGRKFPSTTTPQIVEHLAGVPLAQISAGEAHSMALSMSGNIYSWGKNECGQLGLGHTESKDDPSLIEGLDNQKVEFVACGGSHSALLTQDGLLFTFGAGKHGQLGHNSTQNELRPCLVAELVGYRVTQIACGRWHTLAYVSDLGKVFSFGSGKDGQLGNGGTRDQLMPLPVKVSSSEELKLESHTSEKELIMIAGGNQSILLWIKKENSYVNLKRTIPTLNEGTVKRWIADVETKRWQSTKREIQEIFSSPACLTGSFLRKRRTTEMMPVYLDLNKARNIFKELTQKDWITNMITTCLKDNLLKRLPFHSPPQEALEIFFLLPECPMMHISNNWESLVVPFAKVVCKMSDQSSLVLEEYWATLQESTFSKLVQMFKTAVICQLDYWDESAEENGNVQALLEMLKKLHRVNQVKCQLPESIFQVDELLHRLNFFVEVCRRYLWKMTVDASENVQCCVIFSHFPFIFNNLSKIKLLHTDTLLKIESKKHKAYLRSAAIEEERESEFALRPTFDLTVRRNHLIEDVLNQLSQFENEDLRKELWVSFSGEIGYDLGGVKKEFFYCLFAEMIQPEYGMFMYPEGASCMWFPVKPKFEKKRYFFFGVLCGLSLFNCNVANLPFPLALFKKLLDQMPSLEDLKELSPDLGKNLQTLLDDEGDNFEEVFYIHFNVHWDRNDTNLIPNGSSITVNQTNKRDYVSKYINYIFNDSVKAVYEEFRRGFYKMCDEDIIKLFHPEELKDVIVGNTDYDWKTFEKNARYEPGYNSSHPTIVMFWKAFHKLTLEEKKKFLVFLTGTDRLQMKDLNNMKITFCCPESWNERDPIRALTCFSVLFLPKYSTMETVEEALQEAINNNRGFG [HERC5] | 0.525 | -0.386 | -1.53 | -1.44
6 | URB2 | 0.744 | 1.35 | 1.43 | -1.43
7 | SVIL | 0.176 | -0.947 | 0.478 | -1.65
8 | APOBEC3B | 0.177 | 0.584 | 1.24 | -0.745
